Data reported in article PMC8800115, “The ASCC2 CUE domain in the ALKBH3–ASCC DNA repair complex recognizes adjacent ubiquitins in K63-linked polyubiquitin” (The Journal of Biological Chemistry, 2021).

Target: T1, K63-linked diubiquitin (UniProt P0CG48 1-76; P0CG48 1-76, K48R | K63R | D77 extension, distal ubiquitin: C-terminal G76 in an isopeptide bond with K63 of the proximal ubiquitin | proximal ubiquitin: K63 in an isopeptide bond with G76 of the distal ubiquitin)
T1 construct: ubiquitin, residues 1 to 76, K48R/K63R; distal position of K63Ub2; ubiquitin, residues 1 to 76, with a D77 extension; proximal position of K63Ub2; Two ubiquitins joined covalently; For NMR either the distal or the proximal ubiquitin was 15N-labelled; also called K63Ub2; WT K63Ub2
Assay: ITC; MicroCal iTC200; proteins dialysed in 20 mM Hepes pH 7.5, 150 mM NaCl, 200 μM TCEP; 2-μl injections; who was in the cell is not given; ranges of Kd are from fits with N fixed to 1 (first value: active concentration in the cell varied, second: in the syringe); Kd of S470R and E467R/S470R called apparent
Details: both partners purified

- stoichiometry N: 1 ASCC2 per K63Ub2
B1: full-length ASCC2 (natural protein, human, UniProt Q9H1I8 1-757, looked up)
chain: MPALPLDQLQITHKDPKTGKLRTSPALHPEQKADRYFVLYKPPPKDNIPALVEEYLERATFVANDLDWLLALPHDKFWCQVIFDETLQKCLDSYLRYVPRKFDEGVASAPEVVDMQKRLHRSVFLTFLRMSTHKESKDHFISPSAFGEILYNNFLFDIPKILDLCVLFGKGNSPLLQKMIGNIFTQQPSYYSDLDETLPTILQVFSNILQHCGLQGDGANTTPQKLEERGRLTPSDMPLLELKDIVLYLCDTCTTLWAFLDIFPLACQTFQKHDFCYRLASFYEAAIPEMESAIKKRRLEDSKLLGDLWQRLSHSRKKLMEIFHIILNQICLLPILESSCDNIQGFIEEFLQIFSSLLQEKRFLRDYDALFPVAEDISLLQQASSVLDETRTAYILQAVESAWEGVDRRKATDAKDPSVIEEPNGEPNGVTVTAEAVSQASSHPENSEEEECMGAAAAVGPAMCGVELDSLISQVKDLLPDLGEGFILACLEYYHYDPEQVINNILEERLAPTLSQLDRNLDREMKPDPTPLLTSRHNVFQNDEFDVFSRDSVDLSRVHKGKSTRKEENTRSLLNDKRAVAAQRQRYEQYSVVVEEVPLQPGESLPYHSVYYEDEYDDTYDGNQVGANDADSDDELISRRPFTIPQVLRTKVPREGQEEDDDDEEDDADEEAPKPDHFVQDPAVLREKAEARRMAFLAKKGYRHDSSTAVAGSPRGHGQSRETTQERRKKEANKATRANHNRRTMADRKRSKGMIPS
notes: source: E. coli Rosetta (DE3), purified (HisTrap, Superdex 200)
